From publication PMC10352132 (Nature Structural & Molecular Biology, 2023)

Target: wild-type Rattus norvegicus GABA transporter 1 (rGAT1WT) (Rattus norvegicus, UniProt P23978)
Conditions: one partner purified

B1: Fab 9D5 (Fab, V domains shown)
VH: EVQLVESGGGLVKPGGSLKLSCAASGFTFSSYAMSWVRQSPEKRLEWVAEISSGGRYIYYSDTVTGRFTISRDNARNILHLEMSSLRSEDTAMYYCARGEVRQRGFDYWGQGTTLTVSS
VL: ENVLTQSPAIMSTSPGEKVTMTCRASSSVGSSYLHWYQQKSGASPKLWIYSTSNLASGVPARFSGSGSGTSYSLTISSVEAEDAATYYCQQFSGYPLTFGSGTKLEMK
notes: heavy chain of Fab 9D5; light chain of Fab 9D5; Heavy and light chains were synthesized and cloned into pFastBac Dual with an N-terminal GP64 signal peptide; Only VH and VL are modeled in PDB 8GNK; also called 9D5 Fab; 9D5-Fab; source: Sf9 cells, baculovirus, exported into the media; purified (Ni-NTA, SEC on Superdex 75)
- binding result: no binding (tested: 50 ng of 9D5)
